Patent US20230047179A1 (SYDDANSK UNIVERSITET, published 2023)

What was measured:
recombinant human MFAP4 [1] = biological target: T1, recombinant human MFAP4 (human, UniProt P55083 22-255); experiment: SPR, Biacore T200
T1 construct: mature; also called rhMFAP4; hrMFAP4
T1 sequence (looked up): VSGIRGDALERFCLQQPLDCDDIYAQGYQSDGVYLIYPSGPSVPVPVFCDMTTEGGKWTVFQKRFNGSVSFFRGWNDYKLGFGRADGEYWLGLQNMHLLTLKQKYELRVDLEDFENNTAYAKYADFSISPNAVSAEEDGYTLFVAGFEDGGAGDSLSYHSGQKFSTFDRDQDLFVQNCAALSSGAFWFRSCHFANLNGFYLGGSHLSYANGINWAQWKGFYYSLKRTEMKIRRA

recombinant mouse MFAP4 = biological target: T2, recombinant mouse MFAP4 (mouse, UniProt Q9D1H9 23-257); experiment: direct ELISA, biotinylated antibody on coated recombinant mouse MFAP4, streptavidin-HRP
T2 construct: mature; The expression plasmid is pcDNA5/FRT/V5-His TOPO TA; also called murine MFAP4; mouse serum MFAP4
T2 sequence (looked up): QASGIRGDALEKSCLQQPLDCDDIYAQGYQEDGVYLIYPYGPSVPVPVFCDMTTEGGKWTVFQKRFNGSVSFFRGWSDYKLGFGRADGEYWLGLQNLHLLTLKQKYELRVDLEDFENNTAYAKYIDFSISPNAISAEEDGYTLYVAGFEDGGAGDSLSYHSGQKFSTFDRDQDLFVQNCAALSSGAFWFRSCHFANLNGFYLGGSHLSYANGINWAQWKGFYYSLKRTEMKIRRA
Method: (§1) 96-well plates (Nunc-MaxiSorp) (Nunc™) were coated with 0.5 μg recombinant mouse MFAP4, recombinant human MFAP4 and recombinant human MFAP4 with the RGD-sequence mutated to AAA in PBS O.N at 4° C. Coating was followed by washing and then blocking in TBS/Tw O.N at 4° C. Blocking was followed by addition of biotinylated antibodies diluted 2-fold from an initial concentration of 100 ng/ml. The plates were then incubated for 2 hours at R.T. The plates were washed three times in TBS/Tw and incubated for 20 minutes with Strepavidin Horseradish Peroxidase (HRP) conjugate (Invitrogen) diluted 1:2000 in TBS/Tw. After final three washes, the amount of bound enzyme was estimated by adding OPD (0.8 mg/ml, Kementec, Taastrup, Denmark) dissolved in substrate buffer (0.03% freshly prepared H₂O₂) and allowed to react for 15 minutes in the dark at RT. Colour development was stopped by the addition of 100 μl 1 M H₂SO₄, and the plates were read at OD₄₉₂ nm with OD₆₀₀ nm as reference.

recombinant human MFAP4 [2] = biological target: T1, recombinant human MFAP4; experiment: competition ELISA on immobilized recombinant human MFAP4; competitor: biotinylated hAS0326 at 0.5 µg/ml
Method: (§2) Biotinylated A) HG HYB 7-5 (biotinHYB7-5), B) hAS0326 ([…]) and C) mAS0326 (bmAS0326) at a fixed concentration of 0.5 μg/ml were mixed with unlabelled IgG isotype control, HG HYB 7-18 (HYB7-18), HG HYB 7-5 (HYB7-5), hAS0326 and mAS0326 in a 2-fold dilution from 20 μg/ml. […] Only HG Hyb 7-5 was capable of inhibiting the HG HYB 7-5 interaction with target. In contrast, mAS0326 was capable of inhibiting hAS0326 binding to target and vice versa.
(§3) 96-well plates (Nunc-MaxiSorp) were coated with 0.5 μg recombinant human MFAP4 in PBS O.N at 4° C. followed by washing and then blocking in TBS/Tw O.N at 4° C. Biotinylated Mab (0.5 μg/ml) and unlabeled MAbs (diluted 2-fold from 20 μg/ml to 156 ng/ml) were premixed in a separate microtiterplate in TBS/Tw and then added to the MFAP4 coated microtiter plate. The plates were following incubated for 2 hours at R.T. The plates were washed three times in TBS/Tw and incubated for 20 min with Strepavidin Horseradish Peroxidase (HRP) conjugate (Invitrogen) diluted 1:2000 in TBS/Tw. […] Colour development was stopped by the addition of 100 μl 1 M H₂SO₄, and the plates were read at OD₄₉₂ nm with OD₆₀₀ nm as reference.

recombinant human MFAP4 [3] = biological target: T1, recombinant human MFAP4; experiment: competition ELISA on immobilized recombinant human MFAP4; competitor: biotinylated mAS0326 at 0.5 µg/ml
Method: as §2, §3

recombinant human MFAP4 [4] = biological target: T1, recombinant human MFAP4; experiment: competition ELISA on immobilized recombinant human MFAP4; competitor: biotinylated HG HYB 7-5 at 0.5 µg/ml
Method: as §2, §3

[5] = biological target: T3, recombinant human MFAP4 with RGD integrin binding motif mutated to AAA (human, UniProt P55083 22-255); experiment: direct ELISA, biotinylated antibody on coated recombinant human MFAP4 with RGD mutated to AAA, streptavidin-HRP
T3 construct: mature; also called human MFAP4 RGD-AAA mutation
T3 sequence (looked up): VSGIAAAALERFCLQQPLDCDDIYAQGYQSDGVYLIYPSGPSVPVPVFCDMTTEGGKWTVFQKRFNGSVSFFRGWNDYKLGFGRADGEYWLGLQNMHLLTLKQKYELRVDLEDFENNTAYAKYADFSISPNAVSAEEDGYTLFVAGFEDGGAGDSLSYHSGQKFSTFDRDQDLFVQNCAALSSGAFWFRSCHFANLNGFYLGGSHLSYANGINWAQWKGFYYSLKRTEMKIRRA
Method: as §1

B1: mAS0326 (antibody, V domains shown)
VH: QVQLQQPGADLVKPGTSVKLSCKASGFTFTSYWMHWVKQRPGQGLEWIGVIHPNSGNTKYNEKFRSEATLTVDKSSNTAYIQLSSLTSEDSAVYYCAREMWNYGNSWYFDVWGTGTTVTVSS
VL: DVQIIQSPSYLAASPGETITINCRASKSISKYLAWYQERPGKTNKLLIYSGSTLQSGIPSRFSGSGSGTDFTLTISSLEPEDFAMYYCQQHNEYPFTFGAGTKLELK
notes: Murine hybridoma monoclonal antibody raised against human recombinant MFAP4; also called biotinmAS0326; bmAS0326
- Kd (recombinant human MFAP4 [1]): 0.14 nM
- binding result (recombinant mouse MFAP4): binds
- IC50 (read off the curve) (recombinant human MFAP4 [2]): ~0.9 µg/mL
- IC50 (read off the curve) (recombinant human MFAP4 [3]): ~0.9 µg/mL

B2: HG HYB 7-5 (antibody, V domains shown)
VH: EVQLQQSGPELVKPGASVKLSCKTSGYTFTSYDMNWVKQRPGQGLEWIGWIFPRDGSTKFNEKFKGKATLTVDTSSTTAYMELHSLTSEDSAVYFCARAEIFFDYGFDYWGQGTTLTVSS
VL: DIVMTQSTALMAASPGEKVTITCSVSSSISSSNLHWYQQKSETSPKSWIYGTSNLASGVPGRFSGSGSGTSYSLTISSVEAEDAATYYCQQWSSYPLTFGGGTKLEIK
notes: also called biotinHYB7-5
- IC50 (read off the curve) (recombinant human MFAP4 [4]): ~0.8 µg/mL
- binding result (recombinant mouse MFAP4): no binding (tested: 100 ng/ml)
- binding result [5]: no binding (tested: 100 ng/ml)

B3: Chimeric antibody (mAS0326 with human Fc, CHO expression) (antibody, V domains shown)
VH: QVQLQQPGADLVKPGTSVKLSCKASGFTFTSYWMHWVKQRPGQGLEWIGVIHPNSGNTKYNEKFRSEATLTVDKSSNTAYIQLSSLTSEDSAVYYCAREMWNYGNSWYFDVWGTGTTVTVSS
VL: DVQIIQSPSYLAASPGETITINCRASKSISKYLAWYQERPGKTNKLLIYSGSTLQSGIPSRFSGSGSGTDFTLTISSLEPEDFAMYYCQQHNEYPFTFGAGTKLELK
- Kd (recombinant human MFAP4 [1]): 0.504 nM
